# From PMC10878280 (Journal of Virology, 2024)
# B1: C05 IgG (antibody, V domains shown)
# VH: QVQLQESGGGLVQPGESLRLSCVGSGSSFGESTLSYYAVSWVRQAPGKGLEWLSIINAGGGDIDYADSVEGRFTISRDNSKETLYLQMTNLRVEDTGVYYCAKHMSMQQVVSAGWERADLVGDAFDVWGQGTMVTVSS
# VL: DIQLTQSPSSLSASVGDRVTLTCQASQDIRKFLNWYQQKPGKGPKLLIYDASNLQRGVPSRFSGGGSGTDFTLIISSLQPEDVGTYYCQQYDGLPFTFGGGTKVVIK
# notes: not shown: ybbR, C-terminal, kept; copies: 2 + 2
# B2: S139\1 IgG (antibody, V domains shown)
# VH: QVQLQQSGTELKKPGASVKISCKATGYTFSSYWIEWIKQRPGHGLEWIGEILPEIGMTNYNENFKGKATFTANTSSNTVYMQLSSLTSEDSAVYYCARPYDYSWFAYWGQGTLVTVSA
# VL: DIVMTQSQKFMSTSVGDRVSVTCKASQNVDTNVAWYQEKPGQSPKTLIYSASNRYSGVPDRFTGSASGTDFTLTITNVQSEDLAEYFCQQYNSYPYTFGGGTKLEIK
# notes: as for B1
# B3: FI6v3 IgG (antibody, V domains shown)
# VH: QVQLVESGGGVVQPGRSLRLSCAASGFTFSTYAMHWVRQAPGKGLEWVAVISYDANYKYYADSVKGRFTISRDNSKNTLYLQMNSLRAEDTAVYYCAKDSQLRSLLYFEWLSQGYFDYWGQGTLVTVSS
# VL: not shown
# notes: as for B1
# Biological target: T1, hemagglutinin (HA) of A/WSN/1933, on transfected HEK-293T cells (Influenza A virus A/WSN/1933 (H1N1), UniProt P03454)
# T1 construct: source: HEK-293T, transfected with HA-expressing plasmid, on cells
# Experiment: fluorescence imaging with FRAP of labelled antibody on transfected cells
# Conditions: one partner purified
row,Binder,binding result
1,B1,binds
2,B2,binds
3,B3,binds
